Data as given in article doi:10.1101/102822.
Where two headings read alike, the source gives them in different places.

Legend:
[1] = target: Human VEGFR-1 D1-7 (residues 1-750), full-length extracellular domain (human) (UniProt P17948); experiment: ITC
[2] = target: Human VEGFR-1 D1-3 (residues 1-339) (human) (UniProt P17948); experiment: ITC
[3] = target: Human VEGFR-1 D1-7 (residues 1-750), full-length extracellular domain (human) (UniProt P17948); experiment: SEC-MALS
[4] = target: Human VEGFR-1 D1-6 (residues 1-660) (human) (UniProt P17948); experiment: crystal structure
[5] = target: Human VEGFR-1 D2-7 (residues 132-750) (human) (UniProt P17948); experiment: crystal structure

Substance	Kd ([1]; ligand) [nM]	Kd [2] [nM]	Kd [1] [nM]	stoichiometry N [3]	stoichiometry N [4]	stoichiometry N [5]
Human VEGF-A121	1.7	–	–	–	–	–
Human VEGF-A121 (ligand)	–	50	2	1	1	1
